Experimental data published in PMC6239174.

Experiments:
Slbp2-MBP [1] = biological target: T1, Slbp2-MBP (Danio rerio (zebrafish), UniProt A1L2F4 1-326); assay: EMSA
Slbp2-MBP [2] = biological target: T1, Slbp2-MBP; assay: competition EMSA

AAAAAGGUUCUUUUAAGAACCACCCAUUUUU (structured_RNA) [h2a mRNA stem-loop (H2a SL) probe]
binding result (Slbp2-MBP [1]): binds

AAAAAGGUUCUUUUAAGAACCACCCAUUUUU (structured_RNA) [unlabeled H2a SL competitor]
binding result (Slbp2-MBP [2]): binds
